Laboratory results reported in article PMC4494967.

Tests used:
FBXW7 = FBXW7 (UniProt Q969H0); experiment: anti-myc IP, anti-HA blot; settings: reference: myc-CCDC6 wild type; sites S359,S413,T427
USP7 = USP7 (UniProt Q93009); experiment: anti-myc IP, western blot; settings: reference: myc-CCDC6 wild type; sites S359,S413,T427

CCDC6 (from UniProt Q16204) triple mutant S359A/S413A/T427A (TM)
binding against the reference (FBXW7): weaker | binding against the reference (USP7): stronger
